Laboratory results as given in US20240218074A1 (AKESO BIOPHARMA, published 2024).

T1: human CD73 expressed on cells (human PBMC CD8+ T cells and CD19+ B cells); endogenous CD73 of MDA-MB-231 and … (human, UniProt P21589 27-549)
T1 construct: whole, on cells; also called NT5E; ecto-5'-nucleotidase
T1 sequence (looked up): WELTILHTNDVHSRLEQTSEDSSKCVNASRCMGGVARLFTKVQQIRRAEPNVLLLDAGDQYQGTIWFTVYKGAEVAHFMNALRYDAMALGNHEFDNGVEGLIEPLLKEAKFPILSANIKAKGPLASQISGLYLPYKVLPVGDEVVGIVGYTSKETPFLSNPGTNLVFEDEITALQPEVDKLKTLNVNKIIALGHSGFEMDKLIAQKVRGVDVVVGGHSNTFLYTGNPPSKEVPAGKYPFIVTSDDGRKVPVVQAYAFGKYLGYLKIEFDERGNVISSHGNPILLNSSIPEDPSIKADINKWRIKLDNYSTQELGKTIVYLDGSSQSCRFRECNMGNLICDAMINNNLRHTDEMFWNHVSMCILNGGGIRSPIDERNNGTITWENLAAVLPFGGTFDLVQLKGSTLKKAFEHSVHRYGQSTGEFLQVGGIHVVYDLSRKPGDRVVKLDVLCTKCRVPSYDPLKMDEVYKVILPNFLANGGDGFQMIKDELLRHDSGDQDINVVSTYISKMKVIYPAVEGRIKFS

T2: human NT5E-Biotin (NT5E is GenbankID: NP_002517.1, position: 1-552) (human, UniProt P21589 27-552, biotin label (site not stated))
T2 construct: range 1-552; Recombinant soluble antigen made by Akeso (batch 20160505), biotinylated and captured on streptavidin; also called HNT5E-Biotin; human NT5E (1-552)-Biotin
T2 sequence (looked up): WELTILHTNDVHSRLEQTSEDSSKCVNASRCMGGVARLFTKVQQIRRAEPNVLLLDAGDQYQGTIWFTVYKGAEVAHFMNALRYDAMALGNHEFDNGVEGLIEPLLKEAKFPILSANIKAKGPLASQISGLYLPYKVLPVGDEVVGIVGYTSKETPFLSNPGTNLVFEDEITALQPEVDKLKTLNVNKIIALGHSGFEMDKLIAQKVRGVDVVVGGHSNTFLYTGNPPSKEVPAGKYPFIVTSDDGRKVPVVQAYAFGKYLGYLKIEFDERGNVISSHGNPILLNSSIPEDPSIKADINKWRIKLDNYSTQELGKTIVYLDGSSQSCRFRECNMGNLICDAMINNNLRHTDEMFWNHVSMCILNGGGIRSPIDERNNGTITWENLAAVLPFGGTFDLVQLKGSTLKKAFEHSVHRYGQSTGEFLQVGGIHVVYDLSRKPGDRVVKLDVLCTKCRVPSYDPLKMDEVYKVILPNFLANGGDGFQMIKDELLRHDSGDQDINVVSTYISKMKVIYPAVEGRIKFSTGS


How the values were obtained:
[1] = target: T1, human CD73 expressed on cells (human …); test: FACS on human PBMC, binding to CD8+ T cells
Description: (§1) The experimental steps are as follows: The PBMCs were resuscitated, centrifuged at 1,200 rpm for 5 min, and the supernatant was discarded, resuspended in complete medium, counted, and incubated overnight at 37° C. The solution was centrifuged at 1,200 rpm for 5 min, cells were harvested, diluted antibody solution was added at 100 μL/well, mixed well, and incubated in a refrigerator at 4° C. for 1 hour. The solution was centrifuged at 750×g for 5 min, the supernatant was discarded, and washed 2 times with 200 μL of 1×PBS (containing 1% BSA and 0.05% NaN3). Anti-human CD3-FITC (2 μL/100 μL), anti-human CD19-PE (2 μL/100 μL) (Biolegend, article number: 302254), anti-human CD8-PerCP Cy5.5 (1 μL/100 μL), anti-human IgG Fc-AF647 (1:300) (Southern Biotech, catalog number: 9040-31) were added, and incubated at 4° C. for 30 minutes. The solution was centrifuged at 750×g for 5 min, the supernatant was discarded, washed once with 200 μL of 1×PBS (including 1% BSA and 0.05% NaN3); resuspended with 300 μL of 1×PBS (including 1% BSA and 0.05% NaN3), transferred to flow tubes, and loaded for testing.

[2] = target: T1, human CD73 expressed on cells (human …); test: cell-based or functional assay
[3] = target: T1, human CD73 expressed on cells (human …); test: FACS on human PBMC, binding to CD19+ B cells
Description: as §1

[4] = target: T2, human NT5E-Biotin (NT5E is GenbankID: …); test: ELISA on streptavidin-captured human NT5E-Biotin; HRP goat anti-mouse IgG
Description: Experimental steps: After coating the microplate with streptavidin at 2 μg/mL, the microplate was incubated at 4° C. for 12 hours. After the end of incubation, the antigen-coated microplate was rinsed once using PBST, and then blocked for 2 hours using 1% BSA PBST solution as the microplate blocking buffer. After the end of blocking, the microplate was washed three times using PBST. […] The antibody serially diluted with PBST solution was added to the microplate wells. […] The microplate with the antibody to be tested was incubated at 37° C. for 30 minutes, and the microplate was washed three times using PBST after the incubation was completed. […] The microplate was immediately placed into the microplate reader, and the 450 nm optical wavelength was selected to read the OD value of each well of the microplate. Data were analyzed and processed using SoftMax Pro 6.2.1 software.
Curve fitting was performed using the antibody concentration as the abscissa and the absorbance value as the ordinate, and the binding EC₅₀ of the antibody was calculated.

Row | EC50 [1] [nM] | Inhibition rate EC50 (nM): enzyme activity of CD73 expressed by human PBMC membrane (AMP/ATP CellTiter-Glo read-out) [2] [nM] | EC50 [3] [nM] | EC50 [4] [nM] | Binder
1 | 0.288 | 0.226 | 0.108 |  | control antibody CPI-006 (Mupadolimab) (antibody, human IgG1, kappa, N297Q, V domains shown, made by Akeso) VH: QVQLVQSGAEVEKPGASVKVSCKASGYTFTSYWITWVRQAPGQGLEWMGDIYPGSGNTNYNEKFKTRVTITADKSTSTAYMELSSLRSEDTAVYYCAKEGGLTTEDYALDYWGQGTLVTVSS VL: EIVLTQSPATLSLSPGERATLSCRASKNVSTSGYSYMHWYQQKPGQAPRLLIYLASNLESGIPPRFSGSGYGTDFTLTINNIESEDAAYYFCQHSRELPFTFGQGTKVEIKR
2 |  |  |  | 0.018 | murine anti-CD73 monoclonal antibody 19F3 (antibody, V domains shown, Mouse hybridoma antibody purified on protein A; also called murine antibody 19F3; Murine 19F3) VH: EVQLQQSGPELVKPGASMRMSCKASGYSFTGYTMNWVKQSHGKNLEWIGLINPYNAGTSYNQKFKGKATLTVDKSSSTAYMELLSLTSEDSAVYYCARSEYRYGGDYFDYWGQGTTLTVSS VL: not shown
